# According to publication PMC5962072, “Structural insights on the efficient catalysis of hydroperoxide reduction by Ohr: Crystallographic and molecular dynamics approaches” (PLoS ONE, 2018):
# Target: Cys61 (UniProt position 61, AGYSACFIGAL)
# Assay: chemical modification
# Settings: room temperature; Reduced (dithiol) protein after DTT treatment and desalting; no ligand.
substance,measurement,value
"Organic hydroperoxide resistance protein (Ohr, XfOhr) (Xylella fastidiosa)",pKa,5.92 ± 0.11
